Laboratory results published in article doi:10.1101/2021.01.06.425618.

How the values were obtained:
[1] = molecular target: venus-PreIQ3-IQ-A1.3 F[-2]A (rat); assay: FRET or BRET
[2] = molecular target: venus-PreIQ3-IQ-A1.3 (wild type) (rat) (UniProt P27732); assay: FRET or BRET
Chain of UniProt P27732 (P27732 whole entry): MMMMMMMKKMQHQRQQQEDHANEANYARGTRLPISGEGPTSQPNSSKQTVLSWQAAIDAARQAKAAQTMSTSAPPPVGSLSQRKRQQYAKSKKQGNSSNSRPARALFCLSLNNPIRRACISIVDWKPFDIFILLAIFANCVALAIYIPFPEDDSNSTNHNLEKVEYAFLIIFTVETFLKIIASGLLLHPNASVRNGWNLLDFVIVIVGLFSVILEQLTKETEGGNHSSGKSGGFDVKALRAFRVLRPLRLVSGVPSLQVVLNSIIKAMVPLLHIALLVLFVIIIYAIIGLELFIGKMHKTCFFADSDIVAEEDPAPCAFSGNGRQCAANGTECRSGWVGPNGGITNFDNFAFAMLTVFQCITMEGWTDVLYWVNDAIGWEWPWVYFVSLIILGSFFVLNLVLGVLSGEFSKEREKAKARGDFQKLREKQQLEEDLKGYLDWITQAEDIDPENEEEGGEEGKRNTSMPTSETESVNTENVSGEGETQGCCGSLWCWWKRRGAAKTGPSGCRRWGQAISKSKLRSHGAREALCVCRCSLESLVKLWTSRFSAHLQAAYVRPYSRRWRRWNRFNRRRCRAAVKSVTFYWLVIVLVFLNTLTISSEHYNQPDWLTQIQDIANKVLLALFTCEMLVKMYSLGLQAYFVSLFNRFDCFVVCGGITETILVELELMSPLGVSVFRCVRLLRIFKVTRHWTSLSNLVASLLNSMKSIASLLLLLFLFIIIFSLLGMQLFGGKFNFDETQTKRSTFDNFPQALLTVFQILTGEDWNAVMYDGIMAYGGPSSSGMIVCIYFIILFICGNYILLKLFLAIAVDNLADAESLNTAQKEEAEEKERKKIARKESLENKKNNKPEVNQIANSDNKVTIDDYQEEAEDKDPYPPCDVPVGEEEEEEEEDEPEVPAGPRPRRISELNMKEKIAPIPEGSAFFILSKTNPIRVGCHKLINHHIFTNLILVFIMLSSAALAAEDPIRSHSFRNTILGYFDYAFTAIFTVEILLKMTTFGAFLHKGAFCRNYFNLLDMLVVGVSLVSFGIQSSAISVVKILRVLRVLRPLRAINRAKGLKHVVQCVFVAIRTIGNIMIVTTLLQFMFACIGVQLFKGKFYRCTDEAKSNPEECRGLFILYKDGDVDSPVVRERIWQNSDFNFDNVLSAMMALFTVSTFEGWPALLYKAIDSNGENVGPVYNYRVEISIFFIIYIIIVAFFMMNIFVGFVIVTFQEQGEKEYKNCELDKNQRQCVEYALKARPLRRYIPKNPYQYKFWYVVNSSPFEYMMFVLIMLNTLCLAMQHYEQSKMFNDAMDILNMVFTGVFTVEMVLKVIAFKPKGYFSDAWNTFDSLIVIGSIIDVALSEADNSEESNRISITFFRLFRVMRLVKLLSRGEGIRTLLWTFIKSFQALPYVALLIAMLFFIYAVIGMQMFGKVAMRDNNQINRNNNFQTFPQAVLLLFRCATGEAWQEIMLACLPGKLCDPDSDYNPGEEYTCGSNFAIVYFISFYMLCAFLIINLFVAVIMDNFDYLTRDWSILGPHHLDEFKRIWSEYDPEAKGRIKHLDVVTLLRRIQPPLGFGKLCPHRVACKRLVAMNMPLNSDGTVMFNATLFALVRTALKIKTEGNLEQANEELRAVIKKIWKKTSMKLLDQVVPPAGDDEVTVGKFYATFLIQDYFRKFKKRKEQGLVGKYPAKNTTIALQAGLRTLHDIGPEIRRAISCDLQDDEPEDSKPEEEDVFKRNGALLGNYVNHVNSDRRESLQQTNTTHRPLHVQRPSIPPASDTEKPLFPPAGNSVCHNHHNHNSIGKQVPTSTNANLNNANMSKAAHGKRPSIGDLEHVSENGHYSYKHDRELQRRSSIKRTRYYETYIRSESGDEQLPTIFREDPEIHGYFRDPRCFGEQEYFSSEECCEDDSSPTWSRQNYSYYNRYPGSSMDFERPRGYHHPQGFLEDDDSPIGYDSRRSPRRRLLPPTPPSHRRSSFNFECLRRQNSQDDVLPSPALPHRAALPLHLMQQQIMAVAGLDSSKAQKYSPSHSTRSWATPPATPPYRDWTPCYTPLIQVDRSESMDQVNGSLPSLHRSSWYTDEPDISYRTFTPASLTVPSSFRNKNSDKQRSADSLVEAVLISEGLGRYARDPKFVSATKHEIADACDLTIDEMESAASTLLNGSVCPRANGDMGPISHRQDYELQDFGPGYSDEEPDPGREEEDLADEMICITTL

Ka [1]: 5.8e+06 M⁻¹ | Ka [2]: 2.14e+07 M⁻¹
Substance: Cerulean-ICDI1.4 (wild type) (from UniProt O60840 1-1977) (domain or fragment)
